The record followed here is patent US20230227838A1, “ENHANCED CELL SURVIVAL AGAINST BIOTIC AND ABIOTIC STRESSES THROUGH SALICYLICK ACID-INDUCED NPR1 CONDENSATES” (priority 2020, published 2023).

The experiment addresses sim3-GFP (Arabidopsis thaliana) (UniProt P93002). As to the kind of experiment: sim3-GFP IP, LC-MS/MS.

Chain of sim3-GFP (Arabidopsis thaliana) (P93002 other isoform, or with tags, fused parts or gaps): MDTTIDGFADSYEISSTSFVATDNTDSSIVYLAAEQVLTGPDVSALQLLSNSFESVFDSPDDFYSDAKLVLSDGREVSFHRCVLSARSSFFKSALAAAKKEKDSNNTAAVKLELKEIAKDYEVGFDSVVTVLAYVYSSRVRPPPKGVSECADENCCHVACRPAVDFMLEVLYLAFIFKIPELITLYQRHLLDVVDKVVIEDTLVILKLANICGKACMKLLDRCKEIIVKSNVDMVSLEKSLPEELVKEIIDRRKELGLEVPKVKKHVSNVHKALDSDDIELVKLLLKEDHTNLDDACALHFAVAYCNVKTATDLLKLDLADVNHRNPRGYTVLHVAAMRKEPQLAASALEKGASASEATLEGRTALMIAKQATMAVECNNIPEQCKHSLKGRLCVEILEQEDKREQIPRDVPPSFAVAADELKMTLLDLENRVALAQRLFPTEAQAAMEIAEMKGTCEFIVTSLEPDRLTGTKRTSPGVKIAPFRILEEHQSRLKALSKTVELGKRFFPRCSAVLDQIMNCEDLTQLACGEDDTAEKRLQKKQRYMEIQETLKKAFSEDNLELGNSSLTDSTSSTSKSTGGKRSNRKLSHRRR
Chain of ATM1, myosin 1 (Q9LHE9 whole entry): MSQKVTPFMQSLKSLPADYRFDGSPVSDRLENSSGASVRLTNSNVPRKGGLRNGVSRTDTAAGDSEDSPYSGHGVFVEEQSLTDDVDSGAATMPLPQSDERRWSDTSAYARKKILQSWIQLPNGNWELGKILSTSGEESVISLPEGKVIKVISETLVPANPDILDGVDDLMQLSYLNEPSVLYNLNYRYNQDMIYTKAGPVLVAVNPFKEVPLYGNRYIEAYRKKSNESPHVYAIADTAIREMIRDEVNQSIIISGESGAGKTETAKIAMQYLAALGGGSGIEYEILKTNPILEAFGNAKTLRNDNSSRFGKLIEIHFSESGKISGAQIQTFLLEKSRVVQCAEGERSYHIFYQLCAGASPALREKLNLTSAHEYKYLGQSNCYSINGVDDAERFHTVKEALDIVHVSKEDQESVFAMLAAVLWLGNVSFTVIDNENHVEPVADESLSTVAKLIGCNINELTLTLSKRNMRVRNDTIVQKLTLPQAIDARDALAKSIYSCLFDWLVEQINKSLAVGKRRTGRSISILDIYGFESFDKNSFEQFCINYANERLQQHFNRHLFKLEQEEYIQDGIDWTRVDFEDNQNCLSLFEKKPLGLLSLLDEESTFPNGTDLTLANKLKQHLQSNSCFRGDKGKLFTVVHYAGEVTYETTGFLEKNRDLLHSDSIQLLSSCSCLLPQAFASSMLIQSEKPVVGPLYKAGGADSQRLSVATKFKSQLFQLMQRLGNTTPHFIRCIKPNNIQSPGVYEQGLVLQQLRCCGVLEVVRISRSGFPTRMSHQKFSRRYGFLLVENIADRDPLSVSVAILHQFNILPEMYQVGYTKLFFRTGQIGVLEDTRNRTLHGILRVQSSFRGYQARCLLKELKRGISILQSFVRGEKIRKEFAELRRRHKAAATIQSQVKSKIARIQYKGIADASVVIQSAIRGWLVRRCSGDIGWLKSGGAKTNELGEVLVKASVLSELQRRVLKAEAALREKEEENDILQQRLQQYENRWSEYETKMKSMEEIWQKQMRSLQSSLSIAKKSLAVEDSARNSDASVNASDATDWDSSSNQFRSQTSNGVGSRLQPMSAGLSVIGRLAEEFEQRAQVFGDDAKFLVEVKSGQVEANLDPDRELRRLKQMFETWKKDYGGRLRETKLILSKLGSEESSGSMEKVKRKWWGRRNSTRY
Chain of SCPL27, serine carboxypeptidase-like 27 (Q9SFB5 21-459): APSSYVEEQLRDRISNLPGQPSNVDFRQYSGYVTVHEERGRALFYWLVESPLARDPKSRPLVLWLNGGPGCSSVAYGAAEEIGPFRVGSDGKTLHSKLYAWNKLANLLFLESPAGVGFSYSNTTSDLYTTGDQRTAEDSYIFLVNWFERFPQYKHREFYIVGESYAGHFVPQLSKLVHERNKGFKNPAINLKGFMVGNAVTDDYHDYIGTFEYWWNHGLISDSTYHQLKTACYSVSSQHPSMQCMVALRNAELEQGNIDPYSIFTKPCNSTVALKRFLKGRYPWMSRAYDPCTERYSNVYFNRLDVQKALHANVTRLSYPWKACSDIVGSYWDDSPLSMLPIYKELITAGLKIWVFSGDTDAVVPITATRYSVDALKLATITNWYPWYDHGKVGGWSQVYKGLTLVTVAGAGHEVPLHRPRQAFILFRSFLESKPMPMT
Chain of AGD5, NEV, ARF-GAP domain 5 (Q9FL69 whole entry, the tested form may be a part): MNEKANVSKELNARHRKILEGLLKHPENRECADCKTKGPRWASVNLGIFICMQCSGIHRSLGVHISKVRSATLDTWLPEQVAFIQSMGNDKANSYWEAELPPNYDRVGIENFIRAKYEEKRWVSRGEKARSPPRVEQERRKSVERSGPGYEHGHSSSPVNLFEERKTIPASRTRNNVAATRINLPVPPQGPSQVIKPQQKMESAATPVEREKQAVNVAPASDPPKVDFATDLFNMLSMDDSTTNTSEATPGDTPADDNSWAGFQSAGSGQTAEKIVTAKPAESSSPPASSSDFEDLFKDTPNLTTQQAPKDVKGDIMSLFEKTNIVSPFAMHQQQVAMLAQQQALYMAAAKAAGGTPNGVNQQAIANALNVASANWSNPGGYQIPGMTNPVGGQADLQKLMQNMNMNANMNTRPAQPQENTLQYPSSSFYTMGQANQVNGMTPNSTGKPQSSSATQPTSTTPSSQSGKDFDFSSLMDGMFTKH
Chain of Leucine-rich repeat (LRR) family protein (AT5G45510) (Q8VZC7 whole entry): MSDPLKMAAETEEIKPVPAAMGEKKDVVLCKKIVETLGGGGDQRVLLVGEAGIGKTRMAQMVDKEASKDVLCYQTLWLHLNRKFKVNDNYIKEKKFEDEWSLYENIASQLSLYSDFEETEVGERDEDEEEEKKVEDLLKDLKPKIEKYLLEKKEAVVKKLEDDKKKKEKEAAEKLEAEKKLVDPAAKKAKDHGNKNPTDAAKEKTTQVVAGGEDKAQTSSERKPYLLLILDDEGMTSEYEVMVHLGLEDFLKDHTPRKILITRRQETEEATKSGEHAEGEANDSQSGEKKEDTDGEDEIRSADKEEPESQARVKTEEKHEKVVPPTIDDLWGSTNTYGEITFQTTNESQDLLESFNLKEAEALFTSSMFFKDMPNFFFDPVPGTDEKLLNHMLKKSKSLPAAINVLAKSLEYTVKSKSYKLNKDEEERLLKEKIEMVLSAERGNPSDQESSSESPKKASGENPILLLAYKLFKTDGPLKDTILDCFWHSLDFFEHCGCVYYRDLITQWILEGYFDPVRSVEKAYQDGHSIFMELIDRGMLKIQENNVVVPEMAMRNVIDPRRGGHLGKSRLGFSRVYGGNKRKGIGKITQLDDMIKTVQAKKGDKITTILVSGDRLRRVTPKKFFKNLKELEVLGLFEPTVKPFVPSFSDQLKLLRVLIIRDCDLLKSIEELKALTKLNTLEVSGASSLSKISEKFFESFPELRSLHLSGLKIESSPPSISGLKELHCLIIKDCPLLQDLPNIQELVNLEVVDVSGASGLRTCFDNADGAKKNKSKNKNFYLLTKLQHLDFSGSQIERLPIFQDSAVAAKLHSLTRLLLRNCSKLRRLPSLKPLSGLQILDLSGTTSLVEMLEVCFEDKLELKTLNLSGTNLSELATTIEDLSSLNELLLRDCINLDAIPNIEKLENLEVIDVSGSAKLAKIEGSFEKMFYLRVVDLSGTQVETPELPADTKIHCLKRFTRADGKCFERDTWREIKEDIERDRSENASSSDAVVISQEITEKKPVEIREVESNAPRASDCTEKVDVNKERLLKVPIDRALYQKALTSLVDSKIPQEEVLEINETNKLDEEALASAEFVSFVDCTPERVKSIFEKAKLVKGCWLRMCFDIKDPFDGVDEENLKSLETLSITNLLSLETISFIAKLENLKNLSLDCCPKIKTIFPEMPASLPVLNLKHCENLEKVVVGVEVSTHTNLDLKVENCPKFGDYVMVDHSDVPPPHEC
Chain of OPR1, 12-oxophytodienoate reductase 1 (Q8LAH7 whole entry): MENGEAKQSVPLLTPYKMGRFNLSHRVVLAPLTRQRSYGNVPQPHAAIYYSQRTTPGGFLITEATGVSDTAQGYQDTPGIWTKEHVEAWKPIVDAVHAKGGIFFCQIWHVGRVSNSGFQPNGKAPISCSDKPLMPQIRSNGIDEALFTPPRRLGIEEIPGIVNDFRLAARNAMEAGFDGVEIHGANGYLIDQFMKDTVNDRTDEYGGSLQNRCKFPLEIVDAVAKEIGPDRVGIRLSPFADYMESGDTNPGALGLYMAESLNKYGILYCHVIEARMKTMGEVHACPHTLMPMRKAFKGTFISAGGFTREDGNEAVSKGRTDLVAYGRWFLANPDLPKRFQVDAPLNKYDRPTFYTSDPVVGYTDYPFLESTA
Chain of ATCNX1, CNX1, calnexin 1 (P29402 21-530): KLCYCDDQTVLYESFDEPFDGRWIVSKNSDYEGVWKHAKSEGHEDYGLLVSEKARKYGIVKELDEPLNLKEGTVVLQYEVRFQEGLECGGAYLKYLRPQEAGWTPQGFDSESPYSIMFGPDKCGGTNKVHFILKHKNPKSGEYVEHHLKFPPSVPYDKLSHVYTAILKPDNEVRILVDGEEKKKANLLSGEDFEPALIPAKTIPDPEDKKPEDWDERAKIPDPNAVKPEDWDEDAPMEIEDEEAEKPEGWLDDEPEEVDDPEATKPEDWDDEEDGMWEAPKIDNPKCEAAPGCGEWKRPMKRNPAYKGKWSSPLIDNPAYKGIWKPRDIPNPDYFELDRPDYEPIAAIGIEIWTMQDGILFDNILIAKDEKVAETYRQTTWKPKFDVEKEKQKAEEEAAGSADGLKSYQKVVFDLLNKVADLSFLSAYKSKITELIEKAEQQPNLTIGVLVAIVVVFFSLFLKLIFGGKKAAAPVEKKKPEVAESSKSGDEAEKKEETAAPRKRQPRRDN
Chain of RD19A, Papain family cysteine protease (P43296 135-368): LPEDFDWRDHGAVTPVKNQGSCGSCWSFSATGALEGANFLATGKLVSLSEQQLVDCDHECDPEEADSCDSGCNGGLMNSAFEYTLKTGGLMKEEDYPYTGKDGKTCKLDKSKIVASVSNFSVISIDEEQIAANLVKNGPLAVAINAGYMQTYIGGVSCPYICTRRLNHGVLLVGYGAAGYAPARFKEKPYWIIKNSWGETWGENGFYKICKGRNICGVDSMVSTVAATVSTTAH

Substance “Transducin/WD40 repeat-like superfamily protein (AT3G15610)” showed a Normalized Fold Change: SA vs Mock of 2.26 fold.
In the case of “S-adenosyl-L-methionine-dependent methyltransferases superfamily protein (AT1G55450)”, the Normalized Fold Change: SA vs Mock is 2.24 fold.
The value for CYP51, CYTOCHROME P450 51G1 was 2.8 fold; that for “P-loop containing nucleoside triphosphate hydrolases superfamily protein (AT2G28620)” was 7.17 fold.
“Leucine-rich repeat (LRR) family protein (AT5G45510)” came in with a Normalized Fold Change: SA vs Mock of 5.05 fold.
The same measure for IMPA1, importin alpha isoform 1: 2.09 fold.
The same measure for “Disease resistance protein (TIR-NBS class) (AT1G66090)”: 6.26 fold; for “Transducin/WD40 repeat-like superfamily protein (AT3G50590)”: 3400 fold; for NRP1, nodulin-related protein 1: 14.3 fold.
In turn, OPR1, 12-oxophytodienoate reductase 1 had a Normalized Fold Change: SA vs Mock of 4110 fold.
ATCNX1, CNX1, calnexin 1: the Normalized Fold Change: SA vs Mock was 5.26 fold.
The same measure for “ATMDAR2, Pyridine nucleotide-disulphide oxidoreductase family protein”: 2.75 fold; for BCS1, cytochrome BC1 synthesis: 16 fold.
For GDH1, glutamate dehydrogenase 1, the Normalized Fold Change: SA vs Mock came to 86.4 fold.
As for “SOUL-1, SOUL heme-binding family protein”, the Normalized Fold Change: SA vs Mock was found to be 2.93 fold.
The same measure for RNR1, ribonucleotide reductase 1: 2180 fold; for PLP2, phospholipase A 2A: 3.96 fold.
The value for “EDA39, calmodulin-binding family protein” was 3.1 fold; that for SCPL27, serine carboxypeptidase-like 27 was 5810 fold.
The value for EDA10 was 2.22 fold; that for UBQ6, ubiquitin 6 was 2.04 fold.
As to PRH75, DEAD box RNA helicase (PRH75), the Normalized Fold Change: SA vs Mock came out at 5.9 fold.
As to “ATPAD4, PAD4, alpha/beta-Hydrolases superfamily protein (from UniProt Q9S745 1-541)”, the Normalized Fold Change: SA vs Mock is 3.23 fold.
The same measure for “PAD3, Cytochrome P450 superfamily protein (from UniProt Q9LW27 1-490)”: 14.6 fold; for “PR1, pathogenesis-related gene 1 (from UniProt P33154 27-161)”: 3.65 fold; for “Disease resistance protein (TIR-NBS class) (AT3G04210)”: 7.6 fold.
SAG2, aleurain-like protease had a Normalized Fold Change: SA vs Mock of 4.08 fold.
The same measure for TPS10, trehalose phosphate synthase: 2100 fold; for “FAD/NAD(P)-binding oxidoreductase family protein (AT5G22140)”: 9.82 fold.
On to AGD5, NEV, ARF-GAP domain 5, for which the Normalized Fold Change: SA vs Mock was found to be 8.65 fold.
The value for AT3G47630 was 703 fold; that for “TTG1, Transducin/WD40 repeat-like superfamily protein (from UniProt Q9XGN1 1-341)” was 3.34 fold; that for HSP70, heat shock protein 70 was 4.72 fold.
The value for “FUS11, Proteasome component (PCI) domain protein” was 2.75 fold; that for EDS1, enhanced disease susceptability was 3.18 fold.
As for “S-adenosyl-L-methionine-dependent methyltransferases superfamily protein (AT2G32160)”, the Normalized Fold Change: SA vs Mock was 3.44 fold.
As to “NAD(P)-binding Rossmann-fold superfamily protein (AT2G29320)”, the Normalized Fold Change: SA vs Mock came out at 40 fold.
“DDB1A, damaged DNA binding protein 1A (from UniProt Q9M0V3 1-1088)” gave a Normalized Fold Change: SA vs Mock of 2.52 fold.
SQE3, squalene epoxidase 3 showed a Normalized Fold Change: SA vs Mock of 50.1 fold.
As for “NPR3, NPR1-like protein 3 (from UniProt Q8L746 1-586)”, the Normalized Fold Change: SA vs Mock stood at 9.4 fold.
The value for Fes1A was 3.16 fold; that for AT3G53470 was 4.35 fold.
The same measure for “DDB1B, damaged DNA binding protein 1B (from UniProt O49552 1-1088)”: 1620 fold; for “AOAT2, GGT2, alanine-2-oxoglutarate aminotransferase 2”: 10.5 fold; for ROC3, rotamase CYP 3: 5.75 fold.
The same measure for “CAM7, calmodulin 7 (from UniProt P59220 1-149)”: 3.96 fold; for “P-loop containing nucleoside triphosphate hydrolases superfamily protein (AT3G28540)”: 9.62 fold; for “Disease resistance protein (TIR-NBS-LRR class) (AT4G19510)”: 5.17 fold.
In the case of “GSTF6, glutathione S-transferase 6 (from UniProt P42760 1-208)”, the Normalized Fold Change: SA vs Mock is 2.01 fold.
With ATM1, myosin 1, the Normalized Fold Change: SA vs Mock was 2.33 fold.
As for “P-loop containing nucleoside triphosphate hydrolases superfamily protein (AT5G17760)”, the Normalized Fold Change: SA vs Mock turned out to be 4790 fold.
For “CTF2B, FAD/NAD(P)-binding oxidoreductase family protein”, the Normalized Fold Change: SA vs Mock stood at 3.15 fold.
The value for ERF1-2, eukaryotic release factor 1-2 was 2.5 fold; that for “TOC34, translocon at the outer envelope membrane of chloroplasts 34” was 9.76 fold.
In turn, “TOC86, translocon at the outer envelope membrane of chloroplasts 159” came in with a Normalized Fold Change: SA vs Mock of 3.61 fold.
EFE, ethylene-forming enzyme gave a Normalized Fold Change: SA vs Mock of 2.16 fold.
In turn, “Disease resistance protein (TIR-NBS-LRR class) (AT5G41750)” yielded a Normalized Fold Change: SA vs Mock of 10.2 fold.
Consider “NPR2, NPR1-like protein 2 (from UniProt Q9SZI3 1-600)”, for which the Normalized Fold Change: SA vs Mock came out at 16.7 fold.
In the case of PTEN 2, the Normalized Fold Change: SA vs Mock worked out at 2.24 fold.
The value for RNA helicase family protein (AT3G62310) was 7.18 fold; that for “RHD3, Root hair defective 3 GTP-binding protein (RHD3)” was 2.86 fold.
The value for RD19A, Papain family cysteine protease was 3.14 fold.
